Data from publication PMC3141052.

Target: P domain protein of norovirus VA207 (GII.9), amino acid 222-537 (norovirus VA207 (GII.9))
Experiment: crystal structure; native P protein (P2(1)2(1)2) and its complexes with Le^y or SLe^x tetrasaccharide (P2(1)2(1)2(1)); hanging drop, PEG 3350, 50 mM magnesium formate

“P domain protein of norovirus VA207 (GII.9), amino acid 222-537 (domain or fragment)” gave a stoichiometry N of 2.
